Reference: US20170296650A1 (Novartis, published 2017)
Positions count from the first letter of the chain named.

T1: hCMV UL128 (HEK293T transfectant) (hCMV, UniProt P16837 28-171)
T1 sequence: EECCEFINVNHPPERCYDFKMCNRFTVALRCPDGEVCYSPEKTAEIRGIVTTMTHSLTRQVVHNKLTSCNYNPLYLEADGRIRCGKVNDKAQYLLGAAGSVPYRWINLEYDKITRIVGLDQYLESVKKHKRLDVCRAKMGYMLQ

B1: 4H9 (antibody, V domains shown)
VH: AVQLVESGGGLVRPGGSLRLSCAASGFTFSSHEMHWVRQAPGKGLEWLSYIDFTGSIIYYADSVRGRFTISRDNTKKSLFLQMNSLRDEDTALYYCARDGGRWGTSWYYFDYWGQGVLVTVSS
VL: QSVLTQPPSVSGAPGQRVTITCTGSSSNFGAGYDGHWYQQLPGTAPKLLIYGSNRPSGVPDRFSGSKSGTSVSLAITGLQADDEADYYCQSYDSSLSAWVFGGGTKLTVL
notes: human IgG; also called 4H9-biotin; 4H9.6
B2: 6B4 (antibody, V domains shown)
VH: QVQLVESGGGVVQPGRSLRLSCAASGFRFNEFNMHWVRQAPGKGLEWVAVISIDGRHKYNADSVEGRFTISRDNSRNTLYLQMNSLRVEDTALYYCVTDGKAVDGFSGILEFWGQGTPVTVST
VL: EIVLTQSPATLSLSPGERATLSCWASQSVGGYLAWYQQKPGQAPRLLIYDASIRATGIPARFSGSGSGTHFTLTINSLEPEDFAVYYCQQRNNWPPLTFGGGTKVEIK
notes: human IgG; also called 6B4-biotin
B3: 5F1 (antibody, V domains shown)
VH: AVQLVESGGGLAQPGRSLRLSCKVSGFTFSSYEMNWVRQAPGKGLEWIAYIDFTGSTIYYADSVKGRFTISRDTARNSLYLQMNKLRVEDTAVYYCVRDAGRWGTSWYYFDYWGQGTLVTVSS
VL: QSVLTQPPSVSGAPGQRVTISCTGLSSNIGAGYDIHWYQQIPGKAPKLLIYGNNNRPSGVPDRFSGSKSGTSVSLAITGLQAEDEADYYCQSYDSSLNGWVFGGGTRLTVL
notes: human IgG; also called 5F1-biotin
B4: 10C6 (antibody, V domains shown)
VH: B3 VH with T28S, S31N, Y32F, A61S
VL: B3 VL
notes: human IgG; also called 10C6-biotin; 1006
B5: 8I21 (antibody, V domains shown)
VH: LVELVESGGGVVQPGRSLRLSCAASGFTFSSDGMHWVRQSPGRGLEWVAFISSDGSTPYYADSVKGRFTISRDNSKNTLYLQMNSLRAEDTAMYFCAKDWALFRWLRTFDHWGQGTLVTVSS
VL: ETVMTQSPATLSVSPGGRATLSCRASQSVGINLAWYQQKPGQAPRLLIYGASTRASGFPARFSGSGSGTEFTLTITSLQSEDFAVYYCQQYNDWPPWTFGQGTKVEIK
notes: human IgG; also called 8I21-biotin
B6: 15D8 (antibody, V domains shown)
VH: EVQLVQSGAEVKKPGESLKISCQASGYSFTNYWIAWVRQMPGKGLEWMGIIYPGDSDIKYSPSFRGQVTISADKSISNAFLQWRSLRASDTAMYYCARHAIRGDGFDYWGQGTLVTVSS
VL: SYELTQPPSVSVSPGQTATITCSGDKLGEKYACWYQQKPGQSPVLVMYQDTKRPSGIPERFSGSNSGNTATLTISGTRAMDEADYYCQAWDTNTVIFGGGTKLTVL
notes: human IgG; also called 15D8-biotin

Assays:
[1] = target: T2, hCMV glycoprotein B (gB; HEK293T transfectant) (hCMV, UniProt P06473 32-906); assay: cell competition; competitor 10C6-biotin
T2 construct: whole, on cells; in the functional rows it stands for gB on virions or transduced cells of the strain or isolate named in the readout
T2 sequence (P06473 32-906 limits assumed): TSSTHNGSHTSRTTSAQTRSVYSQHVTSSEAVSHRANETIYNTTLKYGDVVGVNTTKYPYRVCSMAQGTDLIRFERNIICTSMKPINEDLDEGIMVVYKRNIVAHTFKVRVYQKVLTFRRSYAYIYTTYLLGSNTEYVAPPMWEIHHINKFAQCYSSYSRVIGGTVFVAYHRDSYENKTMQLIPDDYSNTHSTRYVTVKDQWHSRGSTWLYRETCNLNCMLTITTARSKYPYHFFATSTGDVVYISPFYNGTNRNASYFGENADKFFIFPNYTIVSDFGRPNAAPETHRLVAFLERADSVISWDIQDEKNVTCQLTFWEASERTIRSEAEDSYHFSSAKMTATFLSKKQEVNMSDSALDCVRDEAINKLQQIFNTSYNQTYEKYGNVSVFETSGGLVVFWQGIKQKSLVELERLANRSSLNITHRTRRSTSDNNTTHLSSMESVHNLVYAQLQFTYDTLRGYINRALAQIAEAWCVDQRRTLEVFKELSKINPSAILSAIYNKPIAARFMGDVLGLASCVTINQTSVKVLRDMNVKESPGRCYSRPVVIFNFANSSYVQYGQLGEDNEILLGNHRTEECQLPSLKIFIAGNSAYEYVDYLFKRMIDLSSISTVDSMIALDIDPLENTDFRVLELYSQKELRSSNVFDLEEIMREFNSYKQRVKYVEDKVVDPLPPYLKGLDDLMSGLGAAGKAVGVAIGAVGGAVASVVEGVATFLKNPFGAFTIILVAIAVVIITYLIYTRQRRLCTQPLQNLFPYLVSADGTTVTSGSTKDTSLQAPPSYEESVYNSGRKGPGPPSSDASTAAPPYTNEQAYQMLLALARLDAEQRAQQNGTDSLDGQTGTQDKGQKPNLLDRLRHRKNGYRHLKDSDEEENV

[2] = target: T2, hCMV glycoprotein B (gB; HEK293T …); assay: cell-based or functional assay
[3] = target: T2, hCMV glycoprotein B (gB; HEK293T …); assay: cell-based or functional assay; remark: listed apart in the source
[4] = target: T2, hCMV glycoprotein B (gB; HEK293T …); assay: cell competition; competitor 5F1-biotin
[5] = target: T2, hCMV glycoprotein B (gB; HEK293T …); assay: cell competition; competitor 4H9-biotin
[6] = target: T2, hCMV glycoprotein B (gB; HEK293T …); assay: cell competition; competitor 7H3-biotin
[7] = target: T2, hCMV glycoprotein B (gB; HEK293T …); assay: cell competition; competitor 6B4-biotin
[8] = target: T2, hCMV glycoprotein B (gB; HEK293T …); assay: cell competition; competitor 2B11-biotin
[9] = target: T2, hCMV glycoprotein B (gB; HEK293T …); assay: cell-based or functional assay; remark: listed apart in the source
[10] = target: T3, hCMV gH + gL + UL128 + UL130 (HEK293T co-transfectant) (hCMV, UniProt P12824 24-743; P16832 31-278; P16837 28-171; P16772 1-214); assay: cell-based or functional assay
[11] = target: T4, hCMV gH + gL + UL128 + UL130 + UL131A (5-member complex; HEK293T co-transfectant) (hCMV, UniProt P12824 24-743; P16832 31-278; P16837 1-171; P16772 1-214); assay: cell competition; competitor 4I22-biotin
T4 construct: whole, on cells; in the functional rows it stands for the complex on virions or transduced cells of the strain or isolate named in the readout; also called gH/gL/UL128-131A complex; pentameric complex

[12] = target: T4, hCMV gH + gL + UL128 + UL130 + UL131A …; assay: cell competition; competitor 4N10-biotin
[13] = target: T3, hCMV gH + gL + UL128 + UL130 (HEK293T …); assay: cell-based or functional assay; remark: listed apart in the source
[14] = target: T4, hCMV gH + gL + UL128 + UL130 + UL131A …; assay: cell competition; competitor 15D8-biotin
[15] = target: T4, hCMV gH + gL + UL128 + UL130 + UL131A …; assay: cell competition; competitor 6G4-biotin
[16] = target: T4, hCMV gH + gL + UL128 + UL130 + UL131A …; assay: cell competition; competitor 2F4-biotin
[17] = target: T4, hCMV gH + gL + UL128 + UL130 + UL131A …; assay: cell competition; competitor 1F11-biotin
[18] = target: T4, hCMV gH + gL + UL128 + UL130 + UL131A …; assay: cell competition; competitor 2C12-biotin
[19] = target: T4, hCMV gH + gL + UL128 + UL130 + UL131A …; assay: cell competition; competitor 5A2-biotin
[20] = target: T4, hCMV gH + gL + UL128 + UL130 + UL131A …; assay: cell competition; competitor 8I21-biotin
[21] = target: T1, hCMV UL128 (HEK293T transfectant); assay: cell-based or functional assay
[22] = target: T1, hCMV UL128 (HEK293T transfectant); assay: cell-based or functional assay; remark: listed apart in the source
[23] = target: T4, hCMV gH + gL + UL128 + UL130 + UL131A …; assay: cell competition; competitor 10F7-biotin

| Binder | Inhibition of binding (%) [1] | 90% neutralization VR1814, ARPE [2] | 90% neutralization VR1814, MRC-9 [2] | 50% neutralization VR1814, ARPE [3] | 50% neutralization VR1814, MRC-9 [3] | Inhibition of binding (%) [4] | Inhibition of binding (%) [5] | Inhibition of binding (%) [6] | Inhibition of binding (%) [7] | Inhibition of binding (%) [8] | 50% neutralization VR1814, BM-MSC [9] | 50% neutralization VR1814, Mo-DC [9] | Inhibition of binding (%) [11] | Inhibition of binding (%) [12] | Inhibition of binding (%) [14] | Inhibition of binding (%) [15] | Inhibition of binding (%) [16] | Inhibition of binding (%) [17] | Inhibition of binding (%) [18] | Inhibition of binding (%) [19] | also measured |
| --- | --- | --- | --- | --- | --- | --- | --- | --- | --- | --- | --- | --- | --- | --- | --- | --- | --- | --- | --- | --- | --- |
| B1 | 100% | 0.4 µg/mL | 10 µg/mL | ≤ 2 µg/mL | ≤ 2 µg/mL | 100% | 100% | 0% | 0% | 100% |  |  |  |  |  |  |  |  |  |  |  |
| B2 | 0% | 0.15 µg/mL | 1 µg/mL | ≤ 2 µg/mL | ≤ 2 µg/mL | 0% | 0% | 0% | 100% | 0% | 2 µg/mL | 0.11 µg/mL |  |  |  |  |  |  |  |  |  |
| B3 | 100% | 0.1 µg/mL | 0.5 µg/mL | ≤ 2 µg/mL | ≤ 2 µg/mL | 100% | 100% | 0% | 0% | 100% | 0.3 µg/mL | 0.05 µg/mL |  |  |  |  |  |  |  |  |  |
| B4 | 100% | 0.2 µg/mL | 0.75 µg/mL | ≤ 2 µg/mL | ≤ 2 µg/mL | 100% | 100% | 0% | 0% | 100% | 0.3 µg/mL | 0.02 µg/mL |  |  |  |  |  |  |  |  |  |
| B5 |  |  |  |  |  |  |  |  |  |  |  |  | 0% | 90% | 0% | 0% | 0% | 0% | 0% | 95% | 90% neutralization VR1814, ARPE [10]: 0.03 µg/mL; 90% neutralization VR1814, MRC-9 [10]: > 10 µg/mL; 50% neutralization VR1814, ARPE [13]: < 0.01 µg/mL; 50% neutralization VR1814, MRC-9 [13]: > 2 µg/mL; Inhibition of binding (%) [20]: 100% |
| B6 |  |  |  |  |  |  |  |  |  |  |  |  | 0% | 0% | 100% | 0% | 0% | 0% | 0% | 0% | 90% neutralization VR1814, ARPE [21]: 0.008 µg/mL; 90% neutralization VR1814, MRC-9 [21]: > 10 µg/mL; 50% neutralization VR1814, ARPE [22]: < 0.001 µg/mL; 50% neutralization VR1814, MRC-9 [22]: > 2 µg/mL; Inhibition of binding (%) [23]: 0%; Inhibition of binding (%) [20]: 0% |
